Ends that are not written are not given here. * marks the point of attachment. Biotin = O=C1N[C@H]2[C@H](CS[C@H]2CCCCC(=O)*)N1
Experiments:
Test in all cases: peptide or protein array; E. coli proteome chip: purified His-tagged proteins printed in duplicate on Fullmoon slides, blocked with 1% BSA; 10 nM N-terminal biotinylated LfcinB with 1% BSA, room temperature, 1 h; detected with DyLight 649-labeled streptavidin, ratio to DyLight 549-labeled anti-His antibody; ProCAT normalisation, local cut-off; triplicate chips
Settings in all cases: both partners purified
[1] = target: T1, YjiL (E. coli K-12, UniProt P39383 1-255)
T1 construct: YjiL, E. coli K-12
T1 sequence (looked up): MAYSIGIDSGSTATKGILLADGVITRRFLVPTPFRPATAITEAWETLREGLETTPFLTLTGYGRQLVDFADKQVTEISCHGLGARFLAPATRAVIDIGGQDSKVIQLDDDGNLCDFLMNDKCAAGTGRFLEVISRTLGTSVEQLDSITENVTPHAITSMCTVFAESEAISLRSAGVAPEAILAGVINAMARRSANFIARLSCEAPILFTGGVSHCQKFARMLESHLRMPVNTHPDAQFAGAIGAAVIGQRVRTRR

[2] = target: T2, YggF (E. coli K-12, UniProt P21437 1-321)
T2 construct: YggF, E. coli K-12
T2 sequence (looked up): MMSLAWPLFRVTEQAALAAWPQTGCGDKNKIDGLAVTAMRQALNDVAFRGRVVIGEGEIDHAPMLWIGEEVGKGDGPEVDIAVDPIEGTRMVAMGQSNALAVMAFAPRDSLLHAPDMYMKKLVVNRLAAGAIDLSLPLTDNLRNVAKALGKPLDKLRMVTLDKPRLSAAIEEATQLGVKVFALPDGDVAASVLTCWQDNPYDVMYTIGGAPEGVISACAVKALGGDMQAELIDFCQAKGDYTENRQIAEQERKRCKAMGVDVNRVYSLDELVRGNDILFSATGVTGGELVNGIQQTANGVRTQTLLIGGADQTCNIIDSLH

[3] = target: T3, NrdD (E. coli K-12, UniProt P28903 1-712)
T3 construct: NrdD, ribonucleotide reductase family, E. coli K-12
T3 sequence (looked up): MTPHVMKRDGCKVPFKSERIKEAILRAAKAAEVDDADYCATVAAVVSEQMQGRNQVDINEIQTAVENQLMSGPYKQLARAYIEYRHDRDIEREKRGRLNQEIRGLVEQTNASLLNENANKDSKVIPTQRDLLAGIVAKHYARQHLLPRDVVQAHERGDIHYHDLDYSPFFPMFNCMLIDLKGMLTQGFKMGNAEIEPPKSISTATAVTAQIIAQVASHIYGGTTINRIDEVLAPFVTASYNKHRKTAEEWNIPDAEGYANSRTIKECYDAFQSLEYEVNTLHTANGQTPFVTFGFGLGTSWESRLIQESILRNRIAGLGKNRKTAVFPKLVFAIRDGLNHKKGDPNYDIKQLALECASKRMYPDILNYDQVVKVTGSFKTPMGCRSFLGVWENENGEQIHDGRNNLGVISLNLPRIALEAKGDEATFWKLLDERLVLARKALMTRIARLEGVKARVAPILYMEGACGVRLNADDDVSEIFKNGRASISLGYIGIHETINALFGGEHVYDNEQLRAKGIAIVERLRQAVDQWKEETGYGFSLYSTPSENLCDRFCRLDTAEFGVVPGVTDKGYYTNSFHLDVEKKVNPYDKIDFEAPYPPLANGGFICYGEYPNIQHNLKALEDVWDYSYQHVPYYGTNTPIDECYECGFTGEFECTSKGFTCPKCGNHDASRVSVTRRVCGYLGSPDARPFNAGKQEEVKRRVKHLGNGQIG

[4] = target: T4, YehS (E. coli K-12, UniProt P33355 1-156)
T4 construct: YehS, E. coli K-12
T4 sequence (looked up): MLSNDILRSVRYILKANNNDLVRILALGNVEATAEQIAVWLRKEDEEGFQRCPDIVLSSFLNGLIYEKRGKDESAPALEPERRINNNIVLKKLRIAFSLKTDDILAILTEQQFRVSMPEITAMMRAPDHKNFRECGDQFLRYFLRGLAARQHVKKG

[5] = target: T5, YdhS (E. coli K-12, UniProt P77148 1-534)
T5 construct: YdhS, E. coli K-12
T5 sequence (looked up): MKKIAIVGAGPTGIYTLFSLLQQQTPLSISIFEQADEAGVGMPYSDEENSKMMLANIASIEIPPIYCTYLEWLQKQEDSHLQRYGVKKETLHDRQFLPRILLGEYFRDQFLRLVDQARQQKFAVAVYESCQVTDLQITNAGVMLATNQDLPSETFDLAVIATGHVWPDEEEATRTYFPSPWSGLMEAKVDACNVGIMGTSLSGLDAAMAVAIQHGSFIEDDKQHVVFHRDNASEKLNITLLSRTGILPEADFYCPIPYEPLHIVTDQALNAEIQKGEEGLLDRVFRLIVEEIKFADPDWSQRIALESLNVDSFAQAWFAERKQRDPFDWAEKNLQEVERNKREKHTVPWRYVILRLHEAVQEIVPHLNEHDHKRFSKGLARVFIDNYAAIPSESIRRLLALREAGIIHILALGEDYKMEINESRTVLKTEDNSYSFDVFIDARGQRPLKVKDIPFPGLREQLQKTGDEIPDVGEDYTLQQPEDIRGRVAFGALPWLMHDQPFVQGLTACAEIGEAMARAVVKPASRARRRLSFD

Measured: binding result

B1: N-terminal biotinylated Lactoferricin B (peptide, UniProt P24627 36-60, looked up)
peptide: Biotin-FKCRRWQWRMKKLGAPSITCVRRAF
modifications: ends and bridges not checked
notes: lactoferricin B (LfcinB), cationic antimicrobial peptide of 25 amino acids; also called biotinylated LfcinB; biotin-labeled LfcinB; source: bought: Kelowna Inc
binds: [1] | [2] | [3] | [4] | [5]

Source: publication PMC3229523, “Identification of Lactoferricin B Intracellular Targets Using an Escherichia coli Proteome Chip” (PLoS ONE, 2011)
